According to patent US20190177396A1 (INSERM INSTITUTE NATIONAL DE LA SANTE ET DE LA RECHERCHE …, published 2019):

Key:
[1] = target: the 23-mer peptide; experiment: BIAcore; format not described
[2] = target: CD31shed (residual cell-bound human CD31 after shedding between the 5th and 6th extracellular Ig-like domains) (human) (UniProt P16284); experiment: 10-colour flow cytometry on human peripheral blood leukocytes of a healthy donor, WM59-PE against PECAM 1.2-FITC; gate CD20 = B lymphocytes
[3] = target: CD31shed (residual cell-bound human CD31 after shedding between the 5th and 6th extracellular Ig-like domains) (human) (UniProt P16284); experiment: 10-colour flow cytometry on human peripheral blood leukocytes of a healthy donor, WM59-PE against PECAM 1.2-FITC; gate 3 (CD4) = naive CD4+ T cells
[4] = target: CD31shed (residual cell-bound human CD31 after shedding between the 5th and 6th extracellular Ig-like domains) (human) (UniProt P16284); experiment: 10-colour flow cytometry on human peripheral blood leukocytes of a healthy donor, WM59-PE against PECAM 1.2-FITC; gate 3 (CD8) = naive CD8+ T cells
[5] = target: CD31shed (residual cell-bound human CD31 after shedding between the 5th and 6th extracellular Ig-like domains) (human) (UniProt P16284); experiment: 10-colour flow cytometry on human peripheral blood leukocytes of a healthy donor, WM59-PE against PECAM 1.2-FITC; gate 2 (CD8) = memory CD8+ T cells
[6] = target: CD31shed (residual cell-bound human CD31 after shedding between the 5th and 6th extracellular Ig-like domains) (human) (UniProt P16284); experiment: 10-colour flow cytometry on human peripheral blood leukocytes of a healthy donor, WM59-PE against PECAM 1.2-FITC; gate 1 (CD4) = activated CD4+ T cells
[7] = target: human CD31 (PECAM-1) (human) (UniProt P16284); experiment: 10-colour flow cytometry on human peripheral blood leukocytes of a healthy donor, WM59-PE against PECAM 1.2-FITC; gate CD20 = B lymphocytes
[8] = target: human CD31 (PECAM-1) (human) (UniProt P16284); experiment: 10-colour flow cytometry on human peripheral blood leukocytes of a healthy donor, WM59-PE against PECAM 1.2-FITC; gate 3 (CD4) = naive CD4+ T cells
[9] = target: human CD31 (PECAM-1) (human) (UniProt P16284); experiment: 10-colour flow cytometry on human peripheral blood leukocytes of a healthy donor, WM59-PE against PECAM 1.2-FITC; gate 3 (CD8) = naive CD8+ T cells
[10] = target: human CD31 (PECAM-1) (human) (UniProt P16284); experiment: 10-colour flow cytometry on human peripheral blood leukocytes of a healthy donor, WM59-PE against PECAM 1.2-FITC; gate 2 (CD8) = memory CD8+ T cells
[11] = target: human CD31 (PECAM-1) (human) (UniProt P16284); experiment: 10-colour flow cytometry on human peripheral blood leukocytes of a healthy donor, WM59-PE against PECAM 1.2-FITC; gate 1 (CD4) = activated CD4+ T cells
[12] = target: the molecule itself; experiment: SPR (BIAcore 2000), peptide coated on CM5 chip, same peptide injected at 12.5-100 µM
Protocol: Plasmon Surface Resonance. Homophilic binding association and dissociation constants were calculated by surface plasmon resonance (BIAcore® 2000, GE). […] Dissociation was monitored for 300 seconds. Association (kon) and dissociation (koff) constants were calculated using the BIAevaluation 3.0 Software (GE).

alternatively spliced soluble CD31 (receptor)
Kd [1]: 17 µM

anti-CD31 monoclonal antibody clone PECAM 1.2
percent of gated cells in the lower right quadrant (dom1-/dom6+) [2]: 12
percent of gated cells in the lower right quadrant (dom1-/dom6+) [3]: 28.1
percent of gated cells in the lower right quadrant (dom1-/dom6+) [4]: 23.5
percent of gated cells in the lower right quadrant (dom1-/dom6+) [5]: 29.7
percent of gated cells in the lower right quadrant (dom1-/dom6+) [6]: 90.6

anti-CD31 monoclonal antibody clone WM-59
percent of gated cells in the upper right quadrant (dom1+/dom6+) [7]: 88
percent of gated cells in the upper right quadrant (dom1+/dom6+) [8]: 71.9
percent of gated cells in the upper right quadrant (dom1+/dom6+) [9]: 76.5
percent of gated cells in the upper right quadrant (dom1+/dom6+) [10]: 70.3
percent of gated cells in the upper right quadrant (dom1+/dom6+) [11]: 9.4

B1: mouse CD31 peptide 551-574 (peptide)
peptide: SSMRTSPRSSTLAVRVFLAPWKK
notes: Synthetic peptide, juxta-membrane 23 amino acids of the mouse CD31 ectodomain; In the SPR assay it was both coated on the CM5 chip and injected as analyte
Kd [12]: 17.8 µM
koff [12]: 0.00158 s⁻¹
kon [12]: 134 M⁻¹ s⁻¹
